Results from patent US20060058230A1 (published 2006).
Non-standard residues stand in square brackets, D forms with d. No end group written: not given here. 2Nal = N[C@@H](Cc1ccc2ccccc2c1)C(=O)O; 2Thi = N[C@@H](Cc1cccs1)C(=O)O; β3hL = CC(C)C[C@H](N)CC(=O)O; Nle = CCCC[C@H](N)C(=O)O; βAla = NCCC(=O)O

T1: recombinant hPTH1-receptor (human, UniProt Q03431 27-593)
T1 construct: whole, on cells; also called PTH1-Rc; HEK293/C21 cell line
T1 sequence (looked up): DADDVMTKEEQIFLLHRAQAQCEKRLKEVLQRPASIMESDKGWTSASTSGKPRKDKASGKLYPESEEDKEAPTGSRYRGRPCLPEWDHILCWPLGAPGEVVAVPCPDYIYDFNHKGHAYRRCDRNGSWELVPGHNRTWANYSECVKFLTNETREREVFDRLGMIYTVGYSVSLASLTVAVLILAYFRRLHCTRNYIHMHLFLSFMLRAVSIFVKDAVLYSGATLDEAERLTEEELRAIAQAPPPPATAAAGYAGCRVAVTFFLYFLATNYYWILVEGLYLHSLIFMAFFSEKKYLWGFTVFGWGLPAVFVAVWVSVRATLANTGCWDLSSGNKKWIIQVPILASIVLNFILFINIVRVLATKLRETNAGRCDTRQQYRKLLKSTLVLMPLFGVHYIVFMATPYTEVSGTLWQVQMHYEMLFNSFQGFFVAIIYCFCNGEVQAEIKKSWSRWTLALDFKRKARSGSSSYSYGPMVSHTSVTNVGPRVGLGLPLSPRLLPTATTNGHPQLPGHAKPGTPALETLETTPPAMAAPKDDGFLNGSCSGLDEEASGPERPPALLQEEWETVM

T2: PTH receptor on SaOS-2/B10 cells (UniProt Q03431 27-593)
T2 sequence (looked up): T1 sequence (looked up)

B1: [Nle^8, β-hLeu^18, β-Ala^19, Nal^23, Tyr^34]bPTH(1-34)NH2 (peptide)
peptide: AVSEIQF[Nle]HNLGKHLSS[β3hL][βAla]RVE[2Nal]LRKKLQDVHNY-NH2
modifications: N-terminus assumed
SMILES: CCCC[C@H](NC(=O)[C@H](Cc1ccccc1)NC(=O)[C@H](CCC(N)=O)NC(=O)[C@@H](NC(=O)[C@H](CCC(=O)O)NC(=O)[C@H](CO)NC(=O)[C@@H](NC(=O)[C@H](C)N)C(C)C)[C@@H](C)CC)C(=O)N[C@@H](Cc1c[nH]cn1)C(=O)N[C@@H](CC(N)=O)C(=O)N[C@@H](CC(C)C)C(=O)NCC(=O)N[C@@H](CCCCN)C(=O)N[C@@H](Cc1c[nH]cn1)C(=O)N[C@@H](CC(C)C)C(=O)N[C@@H](CO)C(=O)N[C@@H](CO)C(=O)N[C@H](CC(=O)NCCC(=O)N[C@@H](CCCNC(=N)N)C(=O)N[C@H](C(=O)N[C@@H](CCC(=O)O)C(=O)N[C@@H](Cc1ccc2ccccc2c1)C(=O)N[C@@H](CC(C)C)C(=O)N[C@@H](CCCNC(=N)N)C(=O)N[C@@H](CCCCN)C(=O)N[C@@H](CCCCN)C(=O)N[C@@H](CC(C)C)C(=O)N[C@@H](CCC(N)=O)C(=O)N[C@@H](CC(=O)O)C(=O)N[C@H](C(=O)N[C@@H](Cc1c[nH]cn1)C(=O)N[C@@H](CC(N)=O)C(=O)N[C@@H](Cc1ccc(O)cc1)C(N)=O)C(C)C)C(C)C)CC(C)C
notes: Synthetic analog of bovine PTH(1-34), carboxamide at the C-terminus
B2: [Nle^8,18, β-Ala^19, Nal^23, Tyr^34]bPTH(1-34)NH2 (peptide)
peptide: AVSEIQF[Nle]HNLGKHLSS[Nle][βAla]RVE[2Nal]LRKKLQDVHNY-NH2
modifications: N-terminus assumed
SMILES: CCCC[C@H](NC(=O)[C@H](CO)NC(=O)[C@H](CO)NC(=O)[C@H](CC(C)C)NC(=O)[C@H](Cc1c[nH]cn1)NC(=O)[C@H](CCCCN)NC(=O)CNC(=O)[C@H](CC(C)C)NC(=O)[C@H](CC(N)=O)NC(=O)[C@H](Cc1c[nH]cn1)NC(=O)[C@H](CCCC)NC(=O)[C@H](Cc1ccccc1)NC(=O)[C@H](CCC(N)=O)NC(=O)[C@@H](NC(=O)[C@H](CCC(=O)O)NC(=O)[C@H](CO)NC(=O)[C@@H](NC(=O)[C@H](C)N)C(C)C)[C@@H](C)CC)C(=O)NCCC(=O)N[C@@H](CCCNC(=N)N)C(=O)N[C@H](C(=O)N[C@@H](CCC(=O)O)C(=O)N[C@@H](Cc1ccc2ccccc2c1)C(=O)N[C@@H](CC(C)C)C(=O)N[C@@H](CCCNC(=N)N)C(=O)N[C@@H](CCCCN)C(=O)N[C@@H](CCCCN)C(=O)N[C@@H](CC(C)C)C(=O)N[C@@H](CCC(N)=O)C(=O)N[C@@H](CC(=O)O)C(=O)N[C@H](C(=O)N[C@@H](Cc1c[nH]cn1)C(=O)N[C@@H](CC(N)=O)C(=O)N[C@@H](Cc1ccc(O)cc1)C(N)=O)C(C)C)C(C)C
notes: as for B1
B3: [Nle^8, β-Ala^17,19, β-hLeu^18, Nal^23, Tyr^34]bPTH(1-34)NH2 (peptide)
peptide: AVSEIQF[Nle]HNLGKHLS[βAla][β3hL][βAla]RVE[2Nal]LRKKLQDVHNY-NH2
modifications: N-terminus assumed
SMILES: CCCC[C@H](NC(=O)[C@H](Cc1ccccc1)NC(=O)[C@H](CCC(N)=O)NC(=O)[C@@H](NC(=O)[C@H](CCC(=O)O)NC(=O)[C@H](CO)NC(=O)[C@@H](NC(=O)[C@H](C)N)C(C)C)[C@@H](C)CC)C(=O)N[C@@H](Cc1c[nH]cn1)C(=O)N[C@@H](CC(N)=O)C(=O)N[C@@H](CC(C)C)C(=O)NCC(=O)N[C@@H](CCCCN)C(=O)N[C@@H](Cc1c[nH]cn1)C(=O)N[C@@H](CC(C)C)C(=O)N[C@@H](CO)C(=O)NCCC(=O)N[C@H](CC(=O)NCCC(=O)N[C@@H](CCCNC(=N)N)C(=O)N[C@H](C(=O)N[C@@H](CCC(=O)O)C(=O)N[C@@H](Cc1ccc2ccccc2c1)C(=O)N[C@@H](CC(C)C)C(=O)N[C@@H](CCCNC(=N)N)C(=O)N[C@@H](CCCCN)C(=O)N[C@@H](CCCCN)C(=O)N[C@@H](CC(C)C)C(=O)N[C@@H](CCC(N)=O)C(=O)N[C@@H](CC(=O)O)C(=O)N[C@H](C(=O)N[C@@H](Cc1c[nH]cn1)C(=O)N[C@@H](CC(N)=O)C(=O)N[C@@H](Cc1ccc(O)cc1)C(N)=O)C(C)C)C(C)C)CC(C)C
B4: [Glu^22,25,29, Lys^26,30]hPTHrP(1-34)NH2 (peptide)
peptide: AVSEHQLLHDKGKSIQDLRRREFLEKLIEKIHTA-NH2
notes: Synthetic analog of human PTHrP(1-34), carboxamide at the C-terminus
B5: [Glu^22,25,29, Leu^23,28,30,31, Lys^26]hPTHrP(1-34)NH2 (peptide)
peptide: AVSEHQLLHDKGKSIQDLRRRELLEKLLELLHTA-NH2
notes: as for B4
B6: [Glu^22,25,29, Leu^23,28,31, Lys^26,30, Thi^32]hPTHrP(1-34)NH2 (peptide)
peptide: AVSEHQLLHDKGKSIQDLRRRELLEKLLEKL[2Thi]TA-NH2
modifications: N-terminus assumed
SMILES: CC[C@H](C)[C@H](NC(=O)[C@H](CO)NC(=O)[C@H](CCCCN)NC(=O)CNC(=O)[C@H](CCCCN)NC(=O)[C@H](CC(=O)O)NC(=O)[C@H](Cc1c[nH]cn1)NC(=O)[C@H](CC(C)C)NC(=O)[C@H](CC(C)C)NC(=O)[C@H](CCC(N)=O)NC(=O)[C@H](Cc1c[nH]cn1)NC(=O)[C@H](CCC(=O)O)NC(=O)[C@H](CO)NC(=O)[C@@H](NC(=O)[C@H](C)N)C(C)C)C(=O)N[C@@H](CCC(N)=O)C(=O)N[C@@H](CC(=O)O)C(=O)N[C@@H](CC(C)C)C(=O)N[C@@H](CCCNC(=N)N)C(=O)N[C@@H](CCCNC(=N)N)C(=O)N[C@@H](CCCNC(=N)N)C(=O)N[C@@H](CCC(=O)O)C(=O)N[C@@H](CC(C)C)C(=O)N[C@@H](CC(C)C)C(=O)N[C@@H](CCC(=O)O)C(=O)N[C@@H](CCCCN)C(=O)N[C@@H](CC(C)C)C(=O)N[C@@H](CC(C)C)C(=O)N[C@@H](CCC(=O)O)C(=O)N[C@@H](CCCCN)C(=O)N[C@@H](CC(C)C)C(=O)N[C@@H](Cc1cccs1)C(=O)N[C@H](C(=O)N[C@@H](C)C(N)=O)[C@@H](C)O
notes: as for B4
B7: [Leu^23,28,31]hPTHrP(1-34)NH2 (peptide)
peptide: AVSEHQLLHDKGKSIQDLRRRFLLHHLLAELHTA-NH2
notes: as for B4
B8: [Glu^25,29, Leu^23,27,31, Lys^30]hPTH(1-34)NH2 (peptide)
peptide: SVSEIQLMHNLGKHLNSMERVELLEKLLEKLHNF-NH2
notes: Synthetic analog of human PTH(1-34), carboxamide at the C-terminus
B9: [Glu^25,29, Lys^30]hPTH(1-34)NH2 (peptide)
peptide: SVSEIQLMHNLGKHLNSMERVEWLEKKLEKVHNF-NH2
notes: as for B8
B10: [Leu^23,27,31]hPTH(1-34)NH2 (peptide)
peptide: SVSEIQLMHNLGKHLNSMERVELLRKLLQDLHNF-NH2
notes: as for B8

Biological target: T1, recombinant hPTH1-receptor
Experiment: competition with 125I-[Nle8,18,Nal23,Tyr34]bPTH(1-34)NH2 on HEK293/C21 cells with hPTH1-receptor
Experimental: Human embryonic kidney (HEK293) cells, stably transfected with recombinant hPTH1-receptor (HEK293/C21 cell line, ˜400,000 receptors/cell) (Pines, M., Adams, A. E., Stueckle, S., Bessalle, R., Rashti-Behar, V., Chorev, M., Rosenblatt, M., and Suva, L. J. Endocrinology 1994, 135, 1713-1716), were maintained in D-MEM medium supplemented with 10% fetal bovine serum and […] glutamine at 37° C. in a humidified atmosphere of 95% air/5% CO₂. The medium was changed every 3-4 days, and the cells were subcultured every week. Ligand stimulated adenylyl cyclase activity and radioreceptor competition binding assays were performed on confluent cultures, 1-3 days after a change of medium.
[Nle^{8,18},Nal²³,Tyr³⁴]bPTH(1-34)-NH₂ was radioiodinated and the crude material was purified as previously described (Roubini, E., Duong, L. T., Gibbons, S. W., Leu, C. T., Caulfield, M. P., Chorev, M., and Rosenblatt, M. Biochemistry 1992, 31, 4026-4033). Briefly, 67 μg of peptide in 50 μL phosphate buffer, pH 7.4, in a borosilicate tube, coated with 10 μg Iodogen® (Pierce Chemical), were treated at room temperature with 2 mCi [¹²⁵I]Na for 12 min, followed by dilution with 200 μL of 0.1% TFA in water.
Cells were plated in 24-well tissue culture dishes (Corning Glass Works, Corning, N.Y.) and grown to subconfluency. […] After incubation, cells were washed twice with PBS and lysed with 0.1 M NaOH. Radioactivity in the lysate was measured in a γ-counter (Analytic GammaTrac™ 1193).

IC50 | Molecule
117 nM | B1
59 nM | B2

Biological target: T1, recombinant hPTH1-receptor
Experiment: cell-based or functional assay

EC50 (half maximal stimulation of adenylate cyclase) | Molecule
13.8 nM | [Nle^8, β-Ala^18,19, Nal^23, Tyr^34]bPTH(1-34)NH2 (peptide)
2.73 nM | B1
1.51 nM | B2
9.97 nM | B3

Biological target: T2, PTH receptor on SaOS-2/B10 cells
Experiment: cell-based or functional assay

EC50 (half maximal stimulation of adenylate cyclase) | Molecule
0.42 nM | B4
5 nM | B5
10 nM | B6
0.74 nM | B7
24 nM | B8
25.5 nM | B9
1.12 nM | B10

Biological target: T2, PTH receptor on SaOS-2/B10 cells
Experiment: competition with mono-125I-[Nle8,18,Tyr34]bPTH(1-34)NH2 on SaOS-2/B10 cells
Experimental: SaOS-2/B10 cells were maintained for four days after they had reached confluence. The medium was replaced with 5% FBS […] medium and incubated for 2 hrs at room temperature with 10×10⁴ cpm mono-¹²⁵I-[Nle^{8,18},Tyr³⁴(3-¹²⁵I)]bPTH(1-34)NH₂ in the presence or absence of a competing tested polypeptide of the invention. The cells were washed four times with ice-cold PBS and lysed with 0.1M NaOH, and the radioactivity associated with the cells was counted in a scintillation counter. Synthesis of the radiolabelled [Nle^{8,18},Tyr³⁴(3-¹²⁵I)]bPTH(1-34)NH₂ was carried out as described in Goldman M. E., et al., Endocrinology, (1988), 123, 1468-1475.
The binding assay was conducted on the polypeptides of the invention having SEQ ID NO:5, 6, 7, 9, 10, 11, and 12.

IC50 | Molecule
5.5 nM | B4
70 nM | B5
90 nM | B6
18.3 nM | B7
216 nM | B8
30 nM | B9
41 nM | B10
